Experimental data taken from paper PMC4522201.

Molecular target: CEP-HSA (2-(ω-carboxyethyl)pyrrole derivative of HSA) (human) (UniProt P02768)
Assay: SPR

A Kd of 6.53 nM was found for “CD36-Fc chimera (from UniProt P16671 1-472) (Fc fusion)” in this work.

A Kd of 11.8 nM was found for “TLR2-Fc chimera (from UniProt O60603 21-588) (Fc fusion)” in this work.
